Laboratory results taken from the FLAb antibody collection (doi:10.7554/elife.23156).

B1: scFv; the commonest letter at each place (parent)
chain 1: EVKLDETGGGLVQPGRPMKLSCVASGFTFSDYWMNWVRQSPEKGLEWVAQIRNKPYNYETYYSDSVKGRFTISRDDSKSSVYLQMNNLRVEDMGIYYCTGSYYGMDYWGQGTSVTVS
chain 2: DVVMTQTPLSLPVSLGDQASISCRSSQSLVHSNGNTYLRWYLQKPGQSPKVLIYKVSNRFSGVPDRFSGSGSGTDFTLKISRVEAEDLGVYFCSQSTHVPWTFGGGTKLEIK

Tests used:
[1] = variants of: B1; assay: Kd (Tite-Seq); conditions: with fluorescein; format: scFv 4-4-20, heavy + light
[2] = variants of: B1; assay: yeast surface expression (ratio to wild type); higher = more expressed; conditions: format: scFv 4-4-20, heavy + light

| Variant | Kd [1] [µM] | yeast surface expression [2] |
| --- | --- | --- |
| chain 1 F29I Y32K | 0.00226 | 1.07 |
| chain 1 F29C W33Q | ≥ 10 | 0.687 |
| chain 1 F29C W33G | ≥ 10 | 0.544 |
| chain 1 F29C W33E | ≥ 10 | 0.556 |
| chain 1 F29K Y32N | ≥ 10 | 0.609 |
| chain 1 F29D W36H | ≥ 10 | 0.505 |
| chain 1 F29K M34Y | 0.00708 | 0.801 |
| chain 1 F29H W33R | ≥ 10 | 0.182 |
| chain 1 F29G S30E | ≥ 10 | 1 |
| chain 1 F29G S30K | ≥ 10 | 1.04 |
| chain 1 D106W Y107F | ≥ 10 | 0.264 |
| chain 1 D106W Y107L | ≥ 10 | 0.308 |
| chain 1 F29D Y32K W33Y | 6.61 | 1.18 |
| chain 1 F29E Y32V | ≥ 10 | 0.811 |
| chain 1 F29D Y32C | ≥ 10 | 0.924 |
| chain 1 F29D Y32E | ≥ 10 | 0.599 |
| chain 1 F29I N35R | ≥ 10 | 0.852 |
| chain 1 F29A W33I | ≥ 10 | 0.852 |
| chain 1 F29A W33N | ≥ 10 | 0.741 |
| chain 1 F29C N35K | ≥ 10 | 1.18 |
| chain 1 F29C D31Y | ≥ 10 | 0.522 |
| chain 1 F29C D31M | ≥ 10 | 0.669 |
| chain 1 F29D M34I | ≥ 10 | 0.946 |

| Variant | Kd [1] [µM] | yeast surface expression [2] |
| --- | --- | --- |
| chain 1 F29H W36D | ≥ 10 | 0.486 |
| chain 1 F29H W36Q | ≥ 10 | 0.693 |
| chain 1 F29I W33A W36Y | ≥ 10 | 0.454 |
| chain 1 D106W W108K | ≥ 10 | 0.243 |
| chain 1 F29D S30A | ≥ 10 | 0.941 |
| chain 1 F29D W33L | ≥ 10 | 0.795 |
| chain 1 F29D W33V | ≥ 10 | 0.87 |
| chain 1 D106Y G109D | ≥ 10 | 0.224 |
| chain 1 D106Y G109K | ≥ 10 | 0.136 |
| chain 1 F29A V37S | ≥ 10 | 0.545 |
| chain 1 F29A V37P | ≥ 10 | 0.153 |
| chain 1 F29A V37I | 0.0851 | 0.834 |
| chain 1 F29D N35F W36G | ≥ 10 | 0.644 |
| chain 1 F29A W36H | ≥ 10 | 0.912 |
| chain 1 F29A W36A | ≥ 10 | 0.822 |
| chain 1 F29I W33D M34W | ≥ 10 | 0.719 |
| chain 1 F29D V37A | ≥ 10 | 0.907 |
| chain 1 F29G Y32Q | ≥ 10 | 0.991 |
| chain 1 F29G D31E | ≥ 10 | 0.955 |
| chain 1 F29G D31R | ≥ 10 | 0.931 |
| chain 1 F29G D31Y | ≥ 10 | 0.708 |
| chain 1 F29I S30L | 0.676 | 0.564 |
| chain 1 F29I S30E | 0.00343 | 0.929 |

| Variant | Kd [1] [µM] | yeast surface expression [2] |
| --- | --- | --- |
| chain 1 F29A S30V | 3.94 | 0.758 |
| chain 1 F29H | 3.74 | 0.884 |
| chain 1 F29C | 0.195 | 0.885 |
| chain 1 F29K | ≥ 10 | 0.849 |
| chain 1 F29E | ≥ 10 | 0.778 |
| chain 1 F29L | 0.0402 | 0.984 |
| chain 1 F29I | 0.00325 | 1.01 |
| chain 1 F29A | 0.0221 | 0.974 |
| chain 1 F29K W33R | 0.0692 | 0.639 |
| chain 1 D106W Y107G G109L | ≥ 10 | 0.109 |
| chain 1 F29A M34K V37T | ≥ 10 | 0.628 |
| chain 1 F29I W33H | ≥ 10 | 0.763 |
| chain 1 F29A Y32N | ≥ 10 | 0.832 |
| chain 1 F29H N35V | 0.00251 | 2.76 |
| chain 1 F29C V37E | 6.96 | 0.973 |
| chain 1 F29A M34V | ≥ 10 | 0.827 |
| chain 1 F29A M34R | ≥ 10 | 1.01 |
| chain 1 F29A M34A | ≥ 10 | 0.738 |
| chain 1 F29A M34G | ≥ 10 | 0.656 |
| chain 1 F29I D31E Y32T | ≥ 10 | 0.84 |
| chain 1 F29G N35I | ≥ 10 | 0.645 |
| chain 1 F29G W33K | ≥ 10 | 0.65 |

Now from value to variant, other results behind:

| Kd [1] [µM] | Variant | yeast surface expression [2] |
| --- | --- | --- |
| ≥ 10 | chain 1 F29I Y32E | 0.916 |
| ≥ 10 | chain 1 F29I Y32G | 1.08 |
| ≥ 10 | chain 1 F29K Y32G | 0.778 |
| 0.0233 | chain 1 F29K M34F | 0.631 |
| ≥ 10 | chain 1 F29I W33H M34P | 0.518 |
| ≥ 10 | chain 1 F29G S30T N35R | 0.82 |
| ≥ 10 | chain 1 F29A D31P | 0.922 |
| ≥ 10 | chain 1 F29G S30N | 0.933 |
| ≥ 10 | chain 1 F29I W33M V37P | 0.444 |
| ≥ 10 | chain 1 F29C S30C | 0.693 |
| ≥ 10 | chain 1 D106W Y107N | 0.222 |
| ≥ 10 | chain 1 D106W Y107I | 0.31 |
| 9.5 | chain 1 F29C S30T N35E | 0.668 |
| 0.228 | chain 1 F29I S30R D31E | 0.688 |
| ≥ 10 | chain 1 F29E D31G N35R | 0.621 |
| ≥ 10 | chain 1 F29I N35P | 2.62 |
| ≥ 10 | chain 1 F29I N35A | 0.817 |
| ≥ 10 | chain 1 F29I N35I | 0.383 |
| ≥ 10 | chain 1 F29C N35I | 1.12 |
| ≥ 10 | chain 1 F29E N35T | 0.578 |
| 0.00672 | chain 1 F29E N35I | 0.276 |
| ≥ 10 | chain 1 F29K D31K W33G | 0.92 |
| ≥ 10 | chain 1 F29E M34E | 0.455 |
| ≥ 10 | chain 1 F29H W36C | 0.281 |

| Kd [1] [µM] | Variant | yeast surface expression [2] |
| --- | --- | --- |
| ≥ 10 | chain 1 F29G W36M | 0.478 |
| ≥ 10 | chain 1 F29I V37D | 1.12 |
| ≥ 10 | chain 1 D106W W108S | 0.325 |
| ≥ 10 | chain 1 F29D S30K | 0.968 |
| ≥ 10 | chain 1 D106Y | 0.51 |
| ≥ 10 | chain 1 F29C W36V | 0.635 |
| ≥ 10 | chain 1 F29D W33Y | 0.766 |
| ≥ 10 | chain 1 D106Y G109Q | 0.171 |
| ≥ 10 | chain 1 F29E D31R | 0.624 |
| ≥ 10 | chain 1 F29I M34T | 0.54 |
| ≥ 10 | chain 1 F29D D31E | 1.01 |
| ≥ 10 | chain 1 F29A W36S | 0.313 |
| 0.00493 | chain 1 F29I D31K | 0.958 |
| ≥ 10 | chain 1 F29D V37D | 0.557 |
| 0.0767 | chain 1 F29K S30A W36A | 0.756 |
| ≥ 10 | chain 1 F29A S30D M34K | 0.41 |
| 0.00707 | chain 1 F29H V37R | – |
| ≥ 10 | chain 1 F29D | 1.07 |
| ≥ 10 | chain 1 F29G | 0.925 |
| ≥ 10 | chain 1 F29D W33C M34D | 0.403 |
| ≥ 10 | chain 1 F29I W36L | 0.729 |
| 0.02 | chain 1 F29C V37M | 0.763 |
| ≥ 10 | chain 1 F29C M34K W36I | 0.425 |
| ≥ 10 | chain 1 F29A M34S | 0.612 |
